Measured values reported in patent US20210253718A1, “FRIZZLED5 PROTEIN-BINDING AGENTS” (Modmab Therapeutics Corporation, priority 2016, published 2021).

T1: FZD5 CRD (Homo sapiens, UniProt Q13467)
T1 construct: K29-T156; GPI anchor signal (C); expressed in transfected cells; host or cells: CHO cells, lentiviral pLenti-puro
T1 sequence (Q13467 29-156): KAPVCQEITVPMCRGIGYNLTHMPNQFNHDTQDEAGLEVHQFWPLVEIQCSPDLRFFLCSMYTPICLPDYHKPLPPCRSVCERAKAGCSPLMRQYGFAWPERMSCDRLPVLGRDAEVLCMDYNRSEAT

T2: FZD9 CRD (Homo sapiens, UniProt O00144)
T2 construct: G35-A161; GPI anchor signal (C); expressed in transfected cells; host or cells: CHO cells, lentiviral pLenti-puro
T2 sequence (O00144 35-161): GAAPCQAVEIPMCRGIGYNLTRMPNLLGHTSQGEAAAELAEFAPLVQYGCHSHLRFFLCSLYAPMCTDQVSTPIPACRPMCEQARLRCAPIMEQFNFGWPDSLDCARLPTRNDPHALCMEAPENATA


Columns and labels:
[1] = tested on: CHO cells not expressing Frizzled CRD; assay: Flow cytometry of anti-FZD5 Fab binding to CHO cells not expressing Frizzled CRD (background)
From the text: (§1) The binding of anti-FZD5 Fabs to cell surface-expressed Frizzled protein was further determined for each member of the Frizzled family via flow cytometry and immunofluorescence analysis of a panel of 10 CHO cell lines, each ectopically over-expressing the extracellular cysteine-rich domain (CRD) of a different Frizzled protein family member.

[2] = biological target: T3, FZD2 CRD (Homo sapiens, UniProt Q14332); assay: Flow cytometry of anti-FZD5 Fab binding to CHO cells overexpressing Frizzled CRD
T3 construct: D35-P161; GPI anchor signal (C); expressed in transfected cells; host or cells: CHO cells, lentiviral pLenti-puro
Description: Plasmids: pLCKO lentiviral vector used for knockout (TKO) library construction and expression of individual gRNAs was constructed as described previously (Hart et al., 2015). Briefly, single guide RNA (sgRNA) scaffold was amplified from px330 (Addgene 42230) and cloned into pLKO.TRC005 lentiviral vector (Broad Institute, Cambridge, Mass.) using AgeI/EcoRI restriction sites. BfuAI sites were added at the 5′ end of the sgRNA scaffold for cloning the TKO library or individual gRNA target sequences. Lenti Cas9-2A-BsdR vector used to generate Cas9 stable expression cell lines was constructed as described previously (Hart et al., 2015). Briefly, lentiCRISPR pXPR_001 (Addgene 49535) was modified through removal of the sgRNA scaffold region through NdeI/EcoRI digest and blunt ends generation using Large Klenow Fragment (NEB). 2A-puro was replaced with 2A-BsdR by PCR using the NheI/MluI sites. Each of the 10 human Frizzled cysteine rich domains (CRDs) were cloned into the lentiviral expression plasmid pLenti-puro in the following cassette: FZD_CRD-MYC-GPI.
Flow cytometry: Primary staining of cells was performed by treatment with 200 nM Frizzled profiler Fab. Alexa Fluor 488 AffiniPure F(ab′)2 was used as the secondary antibody (Jackson ImmunoResearch #109-546-097). c-Myc (9E10) IgG1 (primary antibody, Santa Cruz, lot #D0306) and Alexa Fluor 488 IgG (secondary antibody, Life technologies, lot #1458649) were used as controls. Dead cells were excluded by staining with Fixable Viability Dye eFluor 660 (eBioscience, catalogue number 65-0864). All reagents were used as per manufacturer's instructions. Flow cytometry was performed on a BD FACSCanto II flow cytometer (BD Biosciences), and data were analyzed with FlowJo software (FlowJo, LLC).
To confirm that the FZD5-WNT7B circuit is not driven simply by expression and rule out the possibility of a disconnect between RNA and protein levels for the Wnt receptors in HPAF-II cells, a panel of recombinant Fabs were generated, alternatively referred to herein as ‘Frizzled profiler’, that can detect and discriminate all but one of the ten Frizzled receptors. […] To characterize the binding specificity of these Fabs on cells, a panel of 10 CHO cell lines was generated, each expressing the CRD domain of a different myc-tagged Frizzled family member anchored at the plasma membrane through a GPI anchor (CHO-myc-FZDGPI). Despite the high sequence identity between Frizzled family members (FIG. 7A, FIG. 7B), selective Fabs were identified for FZD4, FZD5, FZD6 and FZD10 as assessed by immunofluorescence and flow cytometry (FIG. 7D and FIG. 8). […] The FZD8 CRD is most homologous to that of FZD5 (FIG. 7B). These Fabs can be used to discriminate expression of FZD1, FZD2, FZD4, FZD5, FZD6, FZD7, FZD8, FZD9 and FZD10 (FIG. 7D and FIG. 8). The ‘Frizzled profiler’ therefore consists of 10 different Fabs that can be used to discriminate expression of 9 different Frizzled family members. The Frizzled profiler was then used to confirm that HPAF-II cells express FZD1, FZD5, FZD6 and possibly FZD8 (FIG. 7E).
as §1

[3] = tested on: PATU8988S cells; assay: Effect of anti-FZD5 Fabs on proliferation of pancreatic cancer cell lines (percent growth inhibition); assay type: cell-based, human; settings: Fab 2 μg/ml
[4] = tested on: ASPC-1 cells; assay: as above; assay type: cell-based, human; settings: Fab 10 μg/ml
Description: (§2) The effect of presently disclosed anti-FZD5 Fabs on proliferation of RNF43 loss-of-function mutant pancreatic cancer cell lines HPAFII, PATU8988S and ASPC-1; and on pancreatic cancer cell line RWP1, was tested at […] and 10 μg/ml.

[5] = tested on: HPAFII cells; assay: as above; assay type: cell-based, human; settings: for percent growth inhibition, HPAFII 2 μg/ml: Fab 2 μg/ml; for percent growth inhibition, HPAFII 10 μg/ml: Fab 10 μg/ml
Description: as §2

[6] = tested on: RWP1 cells; assay: as above; assay type: cell-based, human; settings: Fab 10 μg/ml
Description: as §2

[7] = tested on: PATU8988S cells; assay: as above; assay type: cell-based, human; settings: Fab 10 μg/ml
Description: as §2

[8] = biological target: T1, FZD5 CRD; assay: Immunofluorescence of anti-FZD5 Fab binding to CHO cells overexpressing Frizzled CRD; design: key: −: no binding; +: very weak binder; ++: weak binder; +++: good binder; ++++: very good binder
Summary of the method: (§3)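 Immunofluorescence readout of anti-FZD5 Fab staining on CHO cells ectopically overexpressing a single Frizzled cysteine-rich domain. Each CRD was fused to a myc tag and GPI anchor for plasma-membrane display; flow cytometry was run in parallel.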

[9] = biological target: T2, FZD9 CRD; assay: as above; design: key: −: no binding; +: very weak binder; ++: weak binder; +++: good binder; ++++: very good binder
Summary of the method: as §3

[10] = biological target: T4, FZD1 CRD (Homo sapiens, UniProt Q9UP38); assay: as above; design: key: −: no binding; +: very weak binder; ++: weak binder; +++: good binder; ++++: very good binder
T4 construct: D112-P238; GPI anchor signal (C); expressed in transfected cells; host or cells: CHO cells, lentiviral pLenti-puro
Summary of the method: as §3

Median fluorescence, Frizzled CRD overexpressed on CHO cells: FZD2 [2] | Immunofluorescence binding, Frizzled CRD overexpressed on CHO cells: FZD5 [8] | Immunofluorescence binding, Frizzled CRD overexpressed on CHO cells: FZD9 [9] | Immunofluorescence binding, Frizzled CRD overexpressed on CHO cells: FZD1 [10] | Molecule | Median fluorescence, Frizzled CRD overexpressed on CHO cells: None [1] | percent growth inhibition, PATU8988s 2 μg/ml [3] | percent growth inhibition, ASPC-1 10 μg/ml [4] | percent growth inhibition, HPAFII 2 μg/ml [5] | percent growth inhibition, HPAFII 10 μg/ml [5] | percent growth inhibition, RWP1 10 μg/ml [6] | percent growth inhibition, PATU8988s 10 μg/ml [7]
5.09 | + | − |  | Fab-2905: anti-FZD5 Fab with antibody variable region Fv-2905; CDR SEQ ID NOs: 35, 36, 44, 83, 120, 157 (antibody, V domains shown) VH: EVQLVESGGGLVQPGGSLRLSCAASGFNLSYYYMHWVRQAPGKGLEWVASIYSSYSYTSYADSVKGRFTISADTSKNTAYLQMNSLRAEDTAVYYCARSGYALDYWGQGTLVTVSS VL: DIQMTQSPSSLSASVGDRVTITCRASQSVSSAVAWYQQKPGKAPKLLIYSASSLYSGVPSRFSGSRSGTDFTLTISSLQPEDFATYYCQQSSWYYGYPFTFGQGTKVEIK | 3.62 | −26.66% | −10.34% | 0.41% | −12.83% | 41.10% | −46.23%
10.84 | ++++ | − | + | Fab-2903: anti-FZD5 Fab with antibody variable region Fv-2903; CDR SEQ ID NOs: 35, 36, 42, 81, 118, 155 (antibody, V domains shown) VH: EVQLVESGGGLVQPGGSLRLSCAASGFNLSYYYIHWVRQAPGKGLEWVASIYPYSSYTSYADSVKGRFTISADTSKNTAYLQMNSLRAEDTAVYYCARGAIDYWGQGTLVTVSS VL: DIQMTQSPSSLSASVGDRVTITCRASQSVSSAVAWYQQKPGKAPKLLIYSASSLYSGVPSRFSGSRSGTDFTLTISSLQPEDFATYYCQQWGGGSSLFTFGQGTKVEIK | 4.07 | −22.81% | 14.86% | −10.34% | −10.98% | 17.38% | −16.37%

Second part, the molecule before the results:

Molecule | Median fluorescence, Frizzled CRD overexpressed on CHO cells: FZD2 [2] | Immunofluorescence binding, Frizzled CRD overexpressed on CHO cells: FZD5 [8] | Immunofluorescence binding, Frizzled CRD overexpressed on CHO cells: FZD9 [9] | Immunofluorescence binding, Frizzled CRD overexpressed on CHO cells: FZD1 [10] | Median fluorescence, Frizzled CRD overexpressed on CHO cells: None [1] | percent growth inhibition, PATU8988s 2 μg/ml [3] | percent growth inhibition, ASPC-1 10 μg/ml [4] | percent growth inhibition, HPAFII 2 μg/ml [5] | percent growth inhibition, HPAFII 10 μg/ml [5] | percent growth inhibition, RWP1 10 μg/ml [6] | percent growth inhibition, PATU8988s 10 μg/ml [7]
Fab-2901: anti-FZD5 Fab with antibody variable region Fv-2901; CDR SEQ ID NOs: 35, 36, 40, 79, 116, 154 (antibody, V domains shown) VH: EVQLVESGGGLVQPGGSLRLSCAASGFNISYSYMHWVRQAPGKGLEWVASIYSYSSYTYYADSVKGRFTISADTSKNTAYLQMNSLRAEDTAVYYCARSWYYWSPSSGMDYWGQGTLVTVSS VL: DIQMTQSPSSLSASVGDRVTITCRASQSVSSAVAWYQQKPGKAPKLLIYSASSLYSGVPSRFSGSRSGTDFTLTISSLQPEDFATYYCQQGGFLITFGQGTKVEIK | 13.95 | ++++ | − |  | 3.75 | −9.37% | 11.26% | 6.38% | 12.31% | 21.10% | −6.65%
Fab-2900: anti-FZD5 Fab with antibody variable region Fv-2900; CDR SEQ ID NOs: 35, 36, 39, 78, 115, 153 (antibody, V domains shown) VH: EVQLVESGGGLVQPGGSLRLSCAASGFNLSSYYIHWVRQAPGKGLEWVASISSSSSSTSYADSVKGRFTISADTSKNTAYLQMNSLRAEDTAVYYCARGALDYWGQGTLVTVSS VL: DIQMTQSPSSLSASVGDRVTITCRASQSVSSAVAWYQQKPGKAPKLLIYSASSLYSGVPSRFSGSRSGTDFTLTISSLQPEDFATYYCQQWYSGSSLFTFGQGTKVEIK | 6.15 | ++++ | − | − | 3.4 | −29.28% | −1.26% | 3.34% | 3.46% | −29.81% | −51.41%
Fab-2907: anti-FZD5 Fab with antibody variable region Fv-2907; CDR SEQ ID NOs: 35, 36, 46, 85, 122, 159 (antibody, V domains shown) VH: EVQLVESGGGLVQPGGSLRLSCAASGFNIYSSYMHWVRQAPGKGLEWVASISSYSGSTYYADSVKGRFTISADTSKNTAYLQMNSLRAEDTAVYYCARSSWGAYIVSYGFDYWGQGTLVTVSS VL: DIQMTQSPSSLSASVGDRVTITCRASQSVSSAVAWYQQKPGKAPKLLIYSASSLYSGVPSRFSGSRSGTDFTLTISSLQPEDFATYYCQQVGYWWGLITFGQGTKVEIK | 4.07 | ++++ | − | − | 3.43 | −12.76% | 23.78% | 15.15% | 14.20% | 28.57% | −42.69%
